Results from US20260049134A1 (UNIVERSITY OF FLORIDA RESEARCH FOUNDATION, published 2026).

How the values were obtained:
[1] = target: T1, CADM1, endogenous in H929 multiple myeloma cells (human, UniProt Q9BY67 45-442); assay: flow cytometry, IgG1 on H929 cells
T1 construct: Native protein on H929 cells (flow cytometry, siRNA knockdown) and in H929 lysates (IP/MS); also called IGSF4A
T1 sequence: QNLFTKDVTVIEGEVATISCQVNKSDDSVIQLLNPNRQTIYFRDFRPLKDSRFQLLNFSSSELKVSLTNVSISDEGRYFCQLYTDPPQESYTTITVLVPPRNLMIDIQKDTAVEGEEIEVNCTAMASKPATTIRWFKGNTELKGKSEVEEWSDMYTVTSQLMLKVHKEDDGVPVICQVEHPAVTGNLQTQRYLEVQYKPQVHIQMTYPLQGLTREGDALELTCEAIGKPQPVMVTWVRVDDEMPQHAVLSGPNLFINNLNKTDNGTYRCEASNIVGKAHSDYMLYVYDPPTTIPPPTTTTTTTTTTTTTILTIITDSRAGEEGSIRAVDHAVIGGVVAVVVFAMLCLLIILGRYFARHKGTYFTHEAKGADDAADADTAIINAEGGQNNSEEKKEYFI
Procedure: Staining protocol. Cells were harvested (5×10⁴ cells per sample), washed once with phosphate-buffered saline (PBS) at RT, and a second time with ice-cold FACS buffer (PBS, 0.5% BSA, 2 mM EDTA, 0.1% NaN₃). Cells were stained in 50 μL of primary antibody for 30 min on ice, washed twice with 100 μL FACS buffer, stained with 50 μL of diluted secondary antibody, washed two more times in FACS, and then resuspended in 50 μL FACS buffer. Samples were acquired on an Accuri C6 Plus or a BD FACSCanto II flow cytometer (both from BD Biosciences). Data were analyzed using FlowJo version 10 software. Primary antibodies: Fab (10 μg/mL), IgG1 (0.1 to 50 μg/mL), or 25 μL polyclonal Fabs from periplasmic extracts. Polyclonal Fabs were produced by diluting bacterial stocks by a factor of 100 in autoinduction media and incubating overnight to induce expression as previously described. […] Viability stains: DAPI (Cell Signaling Technology) or SYTOX AADvanced Dead Cell Stain (Thermo Fisher Scientific). Labeling: The panel of chimeric rabbit/human IgG1s was labeled using the Alexa Fluor 647 Labeling Kit (Thermo Fisher Scientific, #A20173) to facilitate single-step staining. Competition: Unlabeled IgG1s were added at saturating concentrations of 60 μg/mL to block the target receptors, incubating on ice for 30 min, followed by the addition of an equal volume of the Alexa Fluor 647 labeled antibody at 2 μg/mL, and the mixture was incubated on ice for another 30 min.

[2] = target: T2, PTPRG, endogenous in H929 multiple myeloma cells (human, UniProt P23470 20-1445); assay: IP from H929 cell lysate, LC-MS/MS, heatmap
T2 construct: Native protein on H929 cells (flow cytometry, siRNA knockdown) and in H929 lysates (IP/MS); also called phosphatase receptor type γ
T2 sequence (P23470 20-1445 limits assumed): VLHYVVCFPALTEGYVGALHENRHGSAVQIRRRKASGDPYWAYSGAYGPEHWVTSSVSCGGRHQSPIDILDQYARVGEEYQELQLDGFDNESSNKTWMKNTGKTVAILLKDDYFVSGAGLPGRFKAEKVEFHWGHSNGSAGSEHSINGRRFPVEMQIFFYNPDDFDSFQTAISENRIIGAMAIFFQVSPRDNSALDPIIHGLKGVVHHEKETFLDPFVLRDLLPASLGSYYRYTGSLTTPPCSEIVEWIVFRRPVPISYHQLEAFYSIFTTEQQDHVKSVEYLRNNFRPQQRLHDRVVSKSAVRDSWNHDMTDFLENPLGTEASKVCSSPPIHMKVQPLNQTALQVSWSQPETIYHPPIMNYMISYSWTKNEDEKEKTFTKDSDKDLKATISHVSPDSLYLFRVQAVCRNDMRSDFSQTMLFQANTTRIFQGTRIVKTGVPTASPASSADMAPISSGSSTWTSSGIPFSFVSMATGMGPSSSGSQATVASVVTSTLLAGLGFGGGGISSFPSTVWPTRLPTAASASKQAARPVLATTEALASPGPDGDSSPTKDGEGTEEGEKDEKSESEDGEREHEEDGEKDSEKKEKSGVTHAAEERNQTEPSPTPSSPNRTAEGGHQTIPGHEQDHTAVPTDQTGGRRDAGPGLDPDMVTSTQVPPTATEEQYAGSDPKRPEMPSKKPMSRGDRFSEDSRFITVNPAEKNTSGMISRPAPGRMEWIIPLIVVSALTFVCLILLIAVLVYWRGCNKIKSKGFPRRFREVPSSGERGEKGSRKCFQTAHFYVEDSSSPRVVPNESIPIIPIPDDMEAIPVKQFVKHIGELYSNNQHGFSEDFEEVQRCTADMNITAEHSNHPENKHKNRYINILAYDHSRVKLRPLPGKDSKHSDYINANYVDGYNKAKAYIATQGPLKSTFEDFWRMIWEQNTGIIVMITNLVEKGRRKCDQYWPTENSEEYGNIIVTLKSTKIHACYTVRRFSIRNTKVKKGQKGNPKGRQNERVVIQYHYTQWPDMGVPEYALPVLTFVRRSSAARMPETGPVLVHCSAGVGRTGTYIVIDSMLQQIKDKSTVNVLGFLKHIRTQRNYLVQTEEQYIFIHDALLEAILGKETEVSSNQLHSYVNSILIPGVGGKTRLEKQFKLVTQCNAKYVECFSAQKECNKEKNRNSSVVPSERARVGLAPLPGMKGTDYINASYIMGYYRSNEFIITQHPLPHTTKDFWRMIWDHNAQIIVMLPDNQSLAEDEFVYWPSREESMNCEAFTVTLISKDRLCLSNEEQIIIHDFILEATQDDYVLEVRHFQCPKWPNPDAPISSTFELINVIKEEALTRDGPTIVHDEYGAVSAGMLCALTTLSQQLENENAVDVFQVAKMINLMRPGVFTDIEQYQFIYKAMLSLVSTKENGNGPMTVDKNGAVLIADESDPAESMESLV
Procedure: (§1) Immunoprecipitation. […] After 30 min of rocking at 4° C., and lysates were centrifuged at 18,400×g for 20 min at 4° C. Subsequently, 1-mL aliquots of the supernatants were pre-cleared twice with Protein G agarose (Thermo Fisher Scientific) by adding 50 μL of 50% resin slurry and incubating 30 min with end-over-end tumbling at 4° C., followed by centrifugation at 16,000×g for 5 min and pooling of the pre-cleared cell lysate aliquots. Representative mAbs from each cluster were immobilized on Protein G agarose at a ratio of 25 μg IgG1 per 30 μL of 50% slurry, diluted to 500 μL with Dulbecco's PBS (DPBS) and incubated for 1 h at 4° C. with tumbling, followed by centrifugation at 5,000×g for 30 s and 2 washes with lysis buffer. After the last wash, the ˜15 μL of IgG1-coated resin was blocked with 10 μL of 10% BSA (MilliporeSigma). Next, 1 mL of the pooled pre-cleared cell lysate was added to the IgG1-coated resin and incubated for 3 h at 4° C. with tumbling. The immune complexes were pelleted by centrifugation at 2,500×g at 4° C. for 30 s, and gently resuspended to wash for 3 min in 1 mL of lysis buffer, which was repeated once with lysis buffer and twice with an identical wash buffer lacking Triton X-100. Finally, the immune complexes were eluted from the resin with three batch-wise steps using 30 μL of elution buffer (6 or 8 M urea (MilliporeSigma), 20 mM Tris-HCl pH 7.5, and 100 mM NaCl) and incubating 15 min at RT with 450 rpm orbital agitation. Finally, 16 μL of the eluate (˜20%) was analyzed on a reducing SDS-PAGE gel stained with SYPRO Ruby dye (Bio-Rad Laboratories), while the rest was stored at −80° C. prior to LC-MS/MS analysis.
(§2) Protein elutions in 6 or 8 M urea were reduced with 15 mM dithiothreitol at 56° C. for 30 min followed by alkylation with 30 mM iodoacetamide in the dark at RT. The elutions were then diluted to 1 M urea with 50 mM ammonium bicarbonate pH 7.8 and digested overnight at 37° C. following the addition of 4 μg trypsin (Promega).

[3] = target: T3, ICAM1, endogenous in H929 multiple myeloma cells (human, UniProt P05362 28-532); assay: IP from H929 cell lysate, LC-MS/MS, heatmap
T3 construct: Native protein on H929 cells (flow cytometry, siRNA knockdown) and in H929 lysates (IP/MS); also called CD54
T3 sequence (P05362 28-532 limits assumed): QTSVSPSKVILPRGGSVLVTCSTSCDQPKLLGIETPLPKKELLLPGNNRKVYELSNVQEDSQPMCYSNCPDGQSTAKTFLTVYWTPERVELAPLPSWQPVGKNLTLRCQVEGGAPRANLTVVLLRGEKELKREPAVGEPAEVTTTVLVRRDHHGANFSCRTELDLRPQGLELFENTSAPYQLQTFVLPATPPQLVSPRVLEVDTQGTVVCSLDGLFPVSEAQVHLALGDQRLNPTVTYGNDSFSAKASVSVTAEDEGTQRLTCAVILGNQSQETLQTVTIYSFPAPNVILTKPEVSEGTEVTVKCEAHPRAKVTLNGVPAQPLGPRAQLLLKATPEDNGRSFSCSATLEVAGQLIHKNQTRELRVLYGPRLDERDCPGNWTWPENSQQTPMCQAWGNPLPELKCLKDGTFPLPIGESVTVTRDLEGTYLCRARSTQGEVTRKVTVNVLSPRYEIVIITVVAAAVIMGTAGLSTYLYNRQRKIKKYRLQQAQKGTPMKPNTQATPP
Procedure: as §1, §2

[4] = target: T1, CADM1, endogenous in H929 multiple …; assay: flow cytometry, H929 + vehicle; None 2.74

B1: HW-101 chimeric rabbit-human IgG1 LA/LA/PG (antibody, V domains shown)
VH: QEQLVESGGRLVTPGTPLTLTCKASGFSLGKYDMSWVRQAPGKGLEWIGTIYAGSGSTWYASWAKGRFTISKTSTTVDLKMTSLTTEDTATYFCARDFLGVNSIWGPGTLVTISS
VL: SFVLTQPASVQVNLGQTVSLTCTADTLSRSYASWYQQKPDQAPVLLIHRDTSRPSGVPDRFSGSNSGNTATLTISGAQAGDEADYYCATSDGSGSNFHFVFGGGTQLTVTG
notes: Fc-silenced (L234A/L235A/P329G) IgG1, lambda; Alexa Fluor 647-labeled in single-step flow cytometry; Cluster C-97
antibody-bound positive cells (%) [1]: 95.3% | binding result [2]: no binding | binding result [3]: no binding | Cells stained (%) [4]: 94.3%
